Target: T1, CasEnd-22 (synthetic construct)
T1 chain: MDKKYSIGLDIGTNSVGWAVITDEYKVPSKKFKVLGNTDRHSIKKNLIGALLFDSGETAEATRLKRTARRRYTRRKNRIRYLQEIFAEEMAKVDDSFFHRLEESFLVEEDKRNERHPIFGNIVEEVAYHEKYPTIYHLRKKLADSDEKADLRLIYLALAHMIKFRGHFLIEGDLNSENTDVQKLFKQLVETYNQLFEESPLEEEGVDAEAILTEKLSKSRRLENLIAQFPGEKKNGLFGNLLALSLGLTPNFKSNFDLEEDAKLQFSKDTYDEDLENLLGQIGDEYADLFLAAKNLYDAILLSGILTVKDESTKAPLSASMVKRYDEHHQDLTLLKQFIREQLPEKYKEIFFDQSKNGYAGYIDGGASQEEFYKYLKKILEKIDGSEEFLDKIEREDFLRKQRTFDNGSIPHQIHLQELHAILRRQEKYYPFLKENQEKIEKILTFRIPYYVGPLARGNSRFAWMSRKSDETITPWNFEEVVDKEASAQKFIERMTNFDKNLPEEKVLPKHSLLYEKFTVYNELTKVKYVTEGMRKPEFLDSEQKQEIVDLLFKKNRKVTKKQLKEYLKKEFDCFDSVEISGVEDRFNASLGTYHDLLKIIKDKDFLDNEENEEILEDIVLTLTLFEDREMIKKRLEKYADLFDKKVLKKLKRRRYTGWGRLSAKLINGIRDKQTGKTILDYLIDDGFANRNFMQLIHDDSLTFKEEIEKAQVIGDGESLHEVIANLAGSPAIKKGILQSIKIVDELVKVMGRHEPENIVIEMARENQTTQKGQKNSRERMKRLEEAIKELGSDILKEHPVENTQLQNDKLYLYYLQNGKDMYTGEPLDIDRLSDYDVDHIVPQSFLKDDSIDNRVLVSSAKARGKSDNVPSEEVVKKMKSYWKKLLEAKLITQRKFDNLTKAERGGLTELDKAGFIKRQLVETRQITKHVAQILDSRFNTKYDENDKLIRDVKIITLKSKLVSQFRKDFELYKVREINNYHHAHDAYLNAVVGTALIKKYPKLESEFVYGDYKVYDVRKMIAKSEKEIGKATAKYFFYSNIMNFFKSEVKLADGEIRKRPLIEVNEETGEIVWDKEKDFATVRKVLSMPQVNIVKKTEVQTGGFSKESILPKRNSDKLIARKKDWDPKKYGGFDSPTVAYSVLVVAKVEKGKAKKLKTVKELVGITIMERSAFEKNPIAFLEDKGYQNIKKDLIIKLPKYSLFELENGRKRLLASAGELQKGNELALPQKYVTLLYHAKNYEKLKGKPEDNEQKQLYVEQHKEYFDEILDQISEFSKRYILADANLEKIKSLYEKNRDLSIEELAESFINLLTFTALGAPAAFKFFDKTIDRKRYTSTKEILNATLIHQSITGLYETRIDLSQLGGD
Assay: cell_activity; +++; HEK293T; PAM not stated
Procedure, shortened: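 BFP-to-GFP conversion via reverse transcriptase fusion with each Cas endonuclease plus template RNA: 200 ng of each plasmid nucleofected into 250,000 BFP-expressing HEK293T cells (program DS-150). Percent GFP+ cells by flow cytometry at day 4 measured editing.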

B1: BFP-to-GFP template RNA ; BFP reporter protospacer (ssRNA ; dsDNA)
RNA: GCCGAAGCACUGCACGCCGUGUUUUAGAGCUAGAAAUAGCAAGUUAAAAUAAGGCUAGUCCGUUAUCAACUUGAAAAAGUGGCACCGAGUCGGUGCACCCUGACGUACGGCGUGCAGUGCUU
DNA 1: GCCGAAGCACTGCACGCCGT
DNA 2: ACGGCGTGCAGTGCTTCGGC
- activity: ≥ 100 % of reference

Reference: patent US20250092426, “CAS ENDONUCLEASES AND RELATED METHODS” (Flagship Pioneering Innovations VII, LLC, published 2025)
